Data set [1] concerns sialyl Lewis x. Put plainly: Sialyl Lewis x expression in NALL1 cells by flow cytometer (CSLEX1 antibody). Format: cell-based, human. An excerpt: Fluorescence intensity and distribution of cell count of a sialyl Lewis x sugar chain antigen which is a major selectin ligand sugar chain were confirmed in flow cytometer by using a CSLEX antibody (antibody specifically recognizing the sialyl Lewis x structure; product of Becton, Dickinson and Company) to which a tandem dye APC-Cy7 was bound in accordance with a method described in J. Biol. Chem., 273, 41, 26779-26789 (1998). Rightward shifting in the histogram means an increase in the fluorescence intensity, i.e. an amount of expression of sialyl Lewis x.
These siRNAs were expressed in cells to confirm the effects. For introduction of siRNA into cells, a lentivirus system (product of Invitrogen Corporation) which is able to gene introduction into blood cells at high efficiency and an expression vector for lentivirus pLL3.7 (Nat. Genet., 33, 401-406 (2003)) were used. In the pLL3.7 vector, it is possible to introduce a sense/antisense siRNA sequence including a hair-pin structure downstream of a U6 promoter. […] Therefore, expression of the CD43 antigen and sialyl Lewis x and the selectin binding ability of the cells in which the GFP expression was observed, i.e. of the cells in which siRNA was expressed, were analyzed by using the antibody MEM59 (product of Monosan) for CD43, sialyl Lewis x antibody CSLEX1, and human chimera-Fc-Ig-E- or P-selectin with the use of a flow cytometer. […]
On the technique in general: Flow cytometry measures light scatter and fluorescence of single cells or particles in a stream.

Data set [2] concerns E-selectin. The data set is described as follows: E-selectin binding ability of NALL1 cells by flow cytometer (human chimera-Fc-Ig-E-selectin). Format: cell-based. The text has this: (§1) Likewise, a binding ability to E-selectin and P-selectin was confirmed in flow cytometer through fluorescence intensity and distribution of cell count measured by using a recombinant protein (human chimera-Fc-Ig-E-selectin or human chimera-Fc-Ig-P-selectin; product of R & D Systems) in accordance with the method descried in Blood, 104, 3091-3096 (2004). […] Rightward shifting in the histogram means an increase in the fluorescence intensity, i.e. binding ability to selectin.
(§2) These siRNAs were expressed in cells to confirm the effects. […] Therefore, expression of the CD43 antigen and sialyl Lewis x and the selectin binding ability of the cells in which the GFP expression was observed, i.e. of the cells in which siRNA was expressed, were analyzed by using the antibody MEM59 (product of Monosan) for CD43, sialyl Lewis x antibody CSLEX1, and human chimera-Fc-Ig-E- or P-selectin with the use of a flow cytometer. […]
(§3) Benzyl-α-N-acetylgalactosamine (Bz-α-GalNAc; product of Sigma-Aldrich Japan, K.K.) which is one of sugar chain synthesis inhibiting agents was added to a culture supernatant of NALL1 cells to detect its binding ability to selectin. […] After adding 4 mM of benzyl-α-N-acetylgalactosamine to the culture supernatant of NALL1 cells, expressions of the CD43 antigen and sialyl Lewis x and binding ability to E- and P-selectin were detected by a flow cytometer after 3 day-culture. […]

Data set [3] concerns CD43 antigen. The data set is described as follows: CD43 antigen expression in NALL1 cells by flow cytometer (MEM59 antibody). Format: cell-based, human. As to conditions: for CD43 expression: siRNA introduced by lentivirus pLL3.7 vector, GFP positive fraction, vs vacant vector. An excerpt: These siRNAs were expressed in cells to confirm the effects. For introduction of siRNA into cells, a lentivirus system (product of Invitrogen Corporation) which is able to gene introduction into blood cells at high efficiency and an expression vector for lentivirus pLL3.7 (Nat. Genet., 33, 401-406 (2003)) were used. In the pLL3.7 vector, it is possible to introduce a sense/antisense siRNA sequence including a hair-pin structure downstream of a U6 promoter. The pLL3.7 vector expresses Green Fluorescent Protein (GFP) by a CMV promoter at the same time. Accordingly, oligonucleotide including the sense chain, antisense chain, and hair-pin structure of the designed siRNA sequence (CD43-#1 to #5, CD43-$1 to $5; alphabet f at the end of the name indicates the sense chain, and r indicates the antisense chain) was chemically synthesized and then cloned to pLL3.7 vector, followed by introduction into 293 cells together with a vector for virus particle production. After that, siRNA expression lentivirus vector was collected from a supernatant of the culture medium (FIG. 8). Virus infection was caused by co-culture of the virus particles and NALL1 cells to introduce the siRNA into the cells and the siRNA is expressed. GFP was simultaneously expressed in the cells into which the siRNA was introduced by the pLL3.7 vector. Therefore, expression of the CD43 antigen and sialyl Lewis x and the selectin binding ability of the cells in which the GFP expression was observed, i.e. of the cells in which siRNA was expressed, were analyzed by using the antibody MEM59 (product of Monosan) for CD43, sialyl Lewis x antibody CSLEX1, and human chimera-Fc-Ig-E- or P-selectin with the use of a flow cytometer. As a result, in introduction of vacant vector (pLL3.7), a high rate of the CD43 expression was observed irrelevant from GFP positive or negative.
Benzyl-α-N-acetylgalactosamine (Bz-α-GalNAc; product of Sigma-Aldrich Japan, K.K.) which is one of sugar chain synthesis inhibiting agents was added to a culture supernatant of NALL1 cells to detect its binding ability to selectin. Benzyl-α-N-acetylgalactosamine is subject to sugar chain modification like N-acetylgalactosamine added to serine and threonine of a protein when taken into a cell. Therefore, since the original sugar chain modification to a glycoprotein is suppressed by an addition of an excessive amount of benzyl-α-N-acetylgalactosamine, benzyl-α-N-acetylgalactosamine is used as an O-linked sugar chain synthesis inhibiting agent. After adding 4 mM of benzyl-α-N-acetylgalactosamine to the culture supernatant of NALL1 cells, expressions of the CD43 antigen and sialyl Lewis x and binding ability to E- and P-selectin were detected by a flow cytometer after 3 day-culture. […]

The test system of data set [4] is P-selectin. The data set is described as follows: P-selectin binding ability of NALL1 cells by flow cytometer (human chimera-Fc-Ig-P-selectin). It is filed as cell-based.
Excerpt: as §1, §2, §3

Setting [5] is: siRNA introduced by lentivirus pLL3.7 vector (FIG. 10).

On to `CC(=O)N[C@H]1[C@@H](OCc2ccccc2)O[C@H](CO)[C@H](O)[C@@H]1O` [benzyl-α-N-acetylgalactosamine, Benzyl-α-N-acetylgalactosamine, reference compound], for which the “sialyl Lewis x expression” value in data set [1] (4 mM, 3 day-culture) was “remarkably reduced”. The “selectin binding ability (E-selectin)” value in data set [2] (4 mM, 3 day-culture) is “almost lost”. For the same molecule, in data set [3] (4 mM, 3 day-culture), the “expression of CD43 antigen” value is recorded as “no change”. Also, the “selectin binding ability (P-selectin)” value in data set [4] (4 mM, 3 day-culture) is “almost lost”.

B1: siCD43-#2-pLL3.7: siRNA for CD43 antigen in pLL3.7 lentivirus vector; CD43 sequence ggccgacagcactggggac (nucleic acid)
sense: TGGCCGACAGCACTGGGGACTTCAAGAGAGTCCCCAGTGCTGTCGGCCTTTTTTC
antisense: TCGAGAAAAAAGGCCGACAGCACTGGGGACTCTCTTGAAGTCCCCAGTGCTGTCGGCCA
modifications: shRNA oligos cloned in pLL3.7 lentivector
For B1, the “sialyl Lewis x expression” value in data set [1] (setting [5]) was “remarkable reductions”. For the same molecule, the “selectin binding ability (E-selectin)” value in data set [2] (setting [5]) is given as “remarkable reductions”. In data set [3], the CD43 expression entry is given as “significant reduction”. In addition, the “selectin binding ability (P-selectin)” value in data set [4] (setting [5]) is on record as “remarkable reductions”.

B2: siCD43-#5-pLL3.7: siRNA for CD43 antigen in pLL3.7 lentivirus vector; CD43 sequence gcgtaacggggtggtggac (nucleic acid)
sense: TGCGTAACGGGGTGGTGGACTTCAAGAGAGTCCACCACCCCGTTACGCTTTTTTC
antisense: TCGAGAAAAAAGCGTAACGGGGTGGTGGACTCTCTTGAAGTCCACCACCCCGTTACGCA
modifications: shRNA oligos cloned in pLL3.7 lentivector
Consider B2, for which, in data set [3], the CD43 expression result is on record as “significant reduction”.

B3: siCD43-#1-pLL3.7: siRNA for CD43 antigen in pLL3.7 lentivirus vector; CD43 sequence gtgaccctaaggccgacag (nucleic acid)
sense: TGTGACCCTAAGGCCGACAGTTCAAGAGACTGTCGGCCTTAGGGTCACTTTTTTC
antisense: TCGAGAAAAAAGTGACCCTAAGGCCGACAGTCTCTTGAACTGTCGGCCTTAGGGTCACA
modifications: shRNA oligos cloned in pLL3.7 lentivector
For B3, the CD43 expression entry in data set [3] is “significant reduction”.

These data come from patent US20080318297A1, “Inhibition of Infiltration, and Cell Killing Agent” (priority 2004, published 2008).
